Reference: patent US12565517B2, “Cyclic peptide having CTLA-4 inhibitory activity and use thereof” (GeneFrontier Corporation, priority 2019, dated 2026)
Bridges are numbered along the chain shown (N, C = ends). Where no end group is shown, it is not given here.

Columns and labels:
[1] = biological target: T1, CTLA-4-Fc (Recombinant Human CTLA4-Fc chimera) versus Human Fc (Homo sapiens, UniProt P16410); experiment: Ribosome display pull down assay of enriched clones; assay type: binding; settings: CTLA-4 Fc versus Human Fc
T1 construct: purchased R&D systems
Description: (§1) CTLA-4 protein (Recombinant Human CTLA4-Fc chimera: R&D systems) was biotinylated according to the standard protocol for EZ-Link NHS-PEO12-Biotin (PIERCE). Biotinylation of CTLA-4 protein was confirmed mobility shift of the band in SDS-PAGE. The concentration of biotinylated CTLA-4 protein was measured by using BCA Protein Assay Kit (PIERCE)
Dynabeads MyOne Streptavidin T1 magnetic beads (100 μL slurry, Invitrogen) pre-blocked overnight with 5% SuperBlock at 4° C. was trapped with MagneSphere Magnetic Separation Stand (Promega) and washed twice with 500 μL of wash buffer solution. 100 pmol of biotinylated antigen protein was added and immobilized on the magnetic beads at 4° C. After 60 min, the magnetic beads were trapped with MagneSphere Magnetic Separation Stand (Promega) and washed 3 times with 500 μL of wash buffer solution. The recovered magnetic beads were added with post-translation reaction solution containing ribosome display complexes (peptide-ribosome-mRNA complexes) and stirred with rotation at 4° C. for 1 hr. A supernatant was discarded by MagneSphere Magnetic Separation Stand (Promega), and the recover magnetic beads were added with 1 mL of wash buffer solution and stirred with rotation at 4° C. for 5 min. […] A part of purified mRNA was reacted with RNA-direct SYBR Green Realtime PCR Master Mix (TOYOBO) and quantified by using Light Cycler 480 (Roche).

[2] = biological target: T2, CTLA-4 protein (Recombinant Human CTLA4-Fc chimera) (Homo sapiens, UniProt P16410); experiment: Affinity measurement of MBP fusion clone by BLItz system (biotinylated CTLA-4 on SA sensor chip); assay type: binding
T2 construct: purchased R&D systems
Description: as §1
E. coli transformants were inoculated into 200 mL of 2×YT medium containing ampicillin (final concentration 50 μg/mL), incubated at 37° C. for 3-5 hours (OD600=0.5-0.8), and then added with IPTG (final concentration 0.5 mM) and incubated at 25° C. overnight. The grown E. coli cells were collected by centrifugation, resuspended in 60 mL of lysis buffer (20 mM Tris HCl pH 7.5, 500 mM NaCl), and disrupted by a sonicator (Bioruptor UCD-250). The disrupted cell suspension was centrifuged, the supernatant was collected, filtered through a 0.22 μm filter, and subjected to affinity purification by MBPTrap (GE Healthcare). The purified protein solution was subjected to a buffer exchange into PBS by a dialysis membrane. Purity was confirmed by SDS-PAGE and protein concentration was determined using the BCA Protein Assay Kit (PIERCE).
The affinity of the purified CTLA-4 binding clone (H12SSI-Ctla4-3-02) to CTLA-4 was measured using BLItz system (forte Bio). All operations were performed according to the instruction manual of the BLItz system. The biotinylated CTLA-4 protein was immobilized on the SA sensor chip via streptavidin.

CTLA-4 [3] = biological target: T3, CTLA-4 (Homo sapiens, UniProt P16410); experiment: Evaluation of binding after Affinity Maturation selection by ELISA (S/N ratio, Table 5)
T3 construct: IgG1 Fc (own knowledge: Orencia = abatacept, CTLA4-Ig)
Description: The basic operation of ribosome display was performed in the same manner as described above. Detailed experimental conditions for Affinity Maturation are indicated below. 2 μL of Nanolink streptavidin magnetic beads (SoluLink) were used as magnetic beads to immobilize the antigen, and 1 mL of CTLA-4 protein solution (1 μM) was used as a wash solution. The amount of biotinylated CTLA-4 immobilized on the magnetic beads was 10 pmol in the 1st round, 2 pmol in the 2nd round, and 1 pmol in the 3rd round, respectively. The washing period was 2 hours for the 1st round, 19 hours for the 2nd round, and 67 hours for the 3rd round. The number of wash cycle was one time (2 hours) in the 1st round, two times (about every 10 hours) in the […], and six times (about every 10 hours) in the 3rd round. After each round of RT-PCR, Error-Prone PCR was performed in the same manner as described above.
(§2) After each round of Affinity Maturation, the cyclic peptide genes were recovered and subcloned into pET-Mal vector (FIG. 2) in the same manner as described above to perform base sequence analysis. For the 94 single colonies analyzed for sequence, E. coli transformants were inoculated into 100 μL of 2×YT medium containing ampicillin (final concentration 50 μg/mL), incubated at 37° C. for 3-5 hours (OD600=0.5-0.8), then added with IPTG (final concentration 0.5 mM) and incubated at 25° C. overnight. 10 μL of E. coli cultured medium was added with 90 μL of PBS and 40 μL of lysis reagent (20 μL BugBuster Protein Extraction Reagent (Novagen), 20 μL Lysozyme solution 2.5 mg/mL) to lyse E. coli cells for 1 hour at room temperature. The cell lysate was added with 40 μL of 12.5% skim milk solution (TBST) and blocked for 1 hour at room temperature. In parallel, antigen protein was immobilized overnight at 4° C. in 384-well plates at 100 ng/20 μL per well, and each well was washed twice with 100 μL/well of TBST, added with 100 μL/well of 5% skim milk solution (TBST) for blocking for 1 hour at room temperature, and washed twice with 100 μL/well of TBST to obtain antigen-immobilized plates. 20 μL/well of blocking-treated E. coli extract was added to the antigen-immobilized plates and gently stirred at room temperature using a plate mixer. After 1 hour, the plates were washed 5 times with 100 μL/well of TBST, 20 μL/well of anti-FLAG M2-HRP conjugate (1:2000 dilution, Sigma) was added and gently stirred on a plate mixer for 1 hour at room temperature. The plates were washed 5 times with 100 μL/well of TBST, and binding of cyclic peptides to the antigen was detected by 20 μL/well of chromogenic substrate (0.4 mg/mL 3,3′,5,5′-Tetramethyl-benzidine, 0.01% hydrogen peroxide). After 15 minutes of reaction at room temperature, the reaction was stopped with 20 μL/well of 2N HCl, and absorbance at 450 nm was measured using a plate reader (infinite F200: TECAN) (Table 5).
T3 sequence (P16410 with tags, fused parts or gaps limits assumed): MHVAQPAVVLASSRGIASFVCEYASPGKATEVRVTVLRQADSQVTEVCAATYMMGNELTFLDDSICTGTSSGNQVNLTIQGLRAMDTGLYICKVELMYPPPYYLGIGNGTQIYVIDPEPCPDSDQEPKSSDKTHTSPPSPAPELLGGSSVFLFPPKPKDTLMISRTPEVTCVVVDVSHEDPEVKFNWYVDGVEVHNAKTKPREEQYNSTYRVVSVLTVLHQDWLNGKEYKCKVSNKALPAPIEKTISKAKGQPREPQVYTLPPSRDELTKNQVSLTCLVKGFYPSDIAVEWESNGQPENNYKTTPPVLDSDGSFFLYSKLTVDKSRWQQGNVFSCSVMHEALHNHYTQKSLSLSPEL

SA = SA (Streptomyces avidinii, UniProt P22629); experiment: ELISA background signal of MBP-fused cyclic peptides on SA wells (Table 5); assay type: binding; settings: MBP-fused cyclic peptide
Description: as §2
An Error-Prone Library was prepared based on H12SSI-Ctla4-3-02, and Affinity Maturation selection experiments were performed. […]

CTLA-4 [4] = biological target: T4, CTLA-4 (Homo sapiens, UniProt P16410); experiment: Alanine scanning of clone #10, binding evaluated by ELISA; settings: mutants of clone #10
T4 sequence (P16410 36-223): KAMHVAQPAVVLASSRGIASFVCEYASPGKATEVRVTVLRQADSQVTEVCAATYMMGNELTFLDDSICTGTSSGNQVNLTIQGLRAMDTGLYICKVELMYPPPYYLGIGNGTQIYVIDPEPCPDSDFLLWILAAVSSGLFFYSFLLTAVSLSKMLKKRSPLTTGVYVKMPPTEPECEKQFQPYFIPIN
Description: After each round of Affinity Maturation, the cyclic peptide genes were recovered and subcloned into pET-Mal vector (FIG. 2) in the same manner as described above to perform base sequence analysis. For the 94 single colonies analyzed for sequence, E. coli transformants were inoculated into 100 μL of 2×YT medium containing ampicillin (final concentration 50 μg/mL), incubated at 37° C. for 3-5 hours (OD600=0.5-0.8), then added with IPTG (final concentration 0.5 mM) and incubated at 25° C. overnight. […] The plates were washed 5 times with 100 μL/well of TBST, and binding of cyclic peptides to the antigen was detected by 20 μL/well of chromogenic substrate (0.4 mg/mL 3,3′,5,5′-Tetramethyl-benzidine, 0.01% hydrogen peroxide). After 15 minutes of reaction at room temperature, the reaction was stopped with 20 μL/well of 2N HCl, and absorbance at 450 nm was measured using a plate reader (infinite F200: TECAN) (Table 5).
Using the CTLA-4 binding clone #10 ([…]) (SEQ ID NO: 27), which had high affinity, as the original clone, a series of oligo DNAs encoding mutants in which any one amino acid residue except cysteine was sequentially replaced with alanine were synthesized and each oligo DNA was subcloned into pET-Mal vector (FIG. 2), and the binding activity of the alanine substitution mutants to CTLA-4 was evaluated by ELISA as described above.

T2 sequence (P16410 with tags, fused parts or gaps limits assumed): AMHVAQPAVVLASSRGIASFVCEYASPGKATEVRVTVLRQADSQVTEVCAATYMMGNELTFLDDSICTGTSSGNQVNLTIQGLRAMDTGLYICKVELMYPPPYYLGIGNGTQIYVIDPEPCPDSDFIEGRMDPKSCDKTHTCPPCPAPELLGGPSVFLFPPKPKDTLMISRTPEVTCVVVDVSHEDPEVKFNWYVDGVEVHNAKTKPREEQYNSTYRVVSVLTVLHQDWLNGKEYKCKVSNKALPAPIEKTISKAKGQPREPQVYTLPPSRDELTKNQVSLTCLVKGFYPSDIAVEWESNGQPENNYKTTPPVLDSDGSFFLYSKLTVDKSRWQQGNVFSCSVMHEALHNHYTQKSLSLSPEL
Chain of SA (P22629 25-183): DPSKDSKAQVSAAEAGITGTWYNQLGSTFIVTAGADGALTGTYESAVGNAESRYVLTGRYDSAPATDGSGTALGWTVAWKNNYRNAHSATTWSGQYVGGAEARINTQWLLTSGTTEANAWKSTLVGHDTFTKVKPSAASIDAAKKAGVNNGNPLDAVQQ

For “CMHPFLLVVSHHFC (disulfide 1-14 (inferred); not fully specified (N-terminus)) [H12SSI-Ctla4-3-02]”, the “binding specificity in ribosome display pull down assay” value [1] was “bound specifically to CTLA-4”, the Kd [2] was 3.88 µM and the ka [2] was 3180 M⁻¹ s⁻¹. The kd [2] was 0.0123 s⁻¹, the “ELISA MBP-fusion Orencia (absorbance at 450 nm)” value (CTLA-4 [3]; MBP-fused cyclic peptide, Orencia wells, absorbance at 450 nm) was 0.2278 and the “ELISA MBP-fusion S/N(SA)” value (CTLA-4 [3]; ratio of Orencia signal to SA signal, binding = S/N not less than 2) was 4.3. For the same substance, the “ELISA MBP-fusion SA (absorbance at 450 nm)” value (SA) was 0.0536.
For “I7A mutant: alanine substitution mutant of clone #10 with isoleucine at position 7 replaced (CLHPFLPAVSHHFCGR; not fully specified (bridges); cysteine pairing not given here; also: MBP fusion)”, the “binding activity of alanine substitution mutant to CTLA-4” value (CTLA-4 [4]) was “weak binding activity”.
